The supplement of paper PMC6757056
± gives the standard deviation of the averaged measurements.

B1: library; a variant is named by its letters at N, in order (parent)
chain: GCUGUCACCGGUGCUUGGUACGUUAUAUUCAGCCGGUCUGAUGAGUCUNNNNNNAGACGAAACAGC

Columns and labels:
[1] = variants of: B1; experiment: normalized RNA/DNA level without ligand (relative to sTRSVctl = 100) (log10 (% of sTRSVctl)); HEK293T overexpressing SLC46A1; higher = less ribozyme self-cleavage, higher mRNA level; details: without (6R,S)-folinic acid; ligand present: no
Procedure, shortened: (§1)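 Library plasmids encoding reporter-linked ribozyme switches (mCherry, or eGFP for some folinic acid experiments) were transfected into HEK293T at 4 µg per 6-well well. Ligand, when used, was added 1 h before transfection. Total RNA was extracted with EDTA 72 h later, then reverse-transcribed, amplified, barcoded and sequenced. RNA level was RNA reads over DNA reads, divided by a spiked-in non-cleaving control (or the top 25 sequences), ×100, log10; only sequences with ≥100 DNA reads were kept.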

[2] = variants of: B1; experiment: normalized RNA/DNA level with ligand (relative to sTRSVctl = 100) (log10 (% of sTRSVctl)); HEK293T overexpressing SLC46A1; ligand concentration (+) RNA-Seq: 6 mM; higher = less ribozyme self-cleavage, higher mRNA level; details: with (6R,S)-folinic acid; ligand present: yes
Procedure, shortened: as §1

Variant | normalized RNA/DNA level without ligand (log10) [1] | normalized RNA/DNA level with ligand (log10) [2]
GACACU | 2.032 ± 0.015 | 2.046 ± 0.018
AUAGUU | 1.9853 ± 0.0008 | 2.009 ± 0.01
AUCACC | 2.057 ± 0.0026 | 2.04 ± 0.053
UAUUAU | 1.931 ± 0.012 | 1.985 ± 0.01
GAGAUG | 1.926 ± 0.0081 | 2.02 ± 0.035
GAGCUG | 2.087 ± 0.0096 | 2.07 ± 0.051
AGCUAC | 2.029 ± 0.012 | 2.01 ± 0.063
CAUGAU | 1.97 ± 0.02 | 1.997 ± 0.012
UUGAAC | 2 ± 0.023 | 2.025 ± 0.016
UCCAAU | 1.953 ± 0.0052 | 1.96 ± 0.028
ACUACU | 2.022 ± 0.02 | 2.041 ± 0.0021
UUAGUG | 1.759 ± 0.012 | 1.962 ± 0.012
UCGGGA | 1.937 ± 0.012 | 2.03 ± 0.056
AUGCUU | 2.006 ± 0.018 | 2.037 ± 0.014
AUAUUA | 1.963 ± 0.012 | 1.996 ± 0.019
UGAAUA | 1.965 ± 0.0093 | 2.03 ± 0.026
AAUGAC | 1.9695 ± 0.0006 | 1.99 ± 0.037
GAUCAG | 2.03 ± 0.041 | 2.05 ± 0.028
UCCUGC | 2.057 ± 0.01 | 2.077 ± 0.014
GGUAAC | 1.99 ± 0.041 | 2.005 ± 0.012

Variant | normalized RNA/DNA level without ligand (log10) [1] | normalized RNA/DNA level with ligand (log10) [2]
UAGCGC | 1.998 ± 0.018 | 2.005 ± 0.013
CCGUUU | 2.037 ± 0.0047 | 2.013 ± 0.02
CCGUUG | 1.99 ± 0.024 | 2.04 ± 0.044
UAGUCG | 1.813 ± 0.0049 | 1.99 ± 0.043
CACGAC | 2.02 ± 0.023 | 2.02 ± 0.032
ACUAUA | 1.983 ± 0.012 | 2.013 ± 0.0097
GCGGCG | 2.07 ± 0.023 | 2.1 ± 0.061
GCGGAA | 1.978 ± 0.007 | 2.02 ± 0.048
AUUGCU | 2.015 ± 0.0026 | 1.979 ± 0.012
CGCUGU | 2.03 ± 0.038 | 2 ± 0.02
CACUUU | 1.985 ± 0.013 | 1.98 ± 0.036
GGCAGC | 2.001 ± 0.008 | 1.98 ± 0.032
AGCAAG | 1.935 ± 0.0032 | 2.01 ± 0.025
CGUUGG | 1.931 ± 0.019 | 2.0206 ± 0.0013
UUCGCU | 1.981 ± 0.014 | 1.99 ± 0.026
ACUCCG | 2.001 ± 0.014 | 2.03 ± 0.064
AAAAGA | 1.957 ± 0.0042 | 2.02 ± 0.021
CUAAGA | 2.017 ± 0.0036 | 2 ± 0.04
ACGCGU | 2.022 ± 0.0046 | 2.02 ± 0.018
CCUUCU | 2.01 ± 0.024 | 2.02 ± 0.041

Variant | normalized RNA/DNA level without ligand (log10) [1] | normalized RNA/DNA level with ligand (log10) [2]
AAUGCU | 2.022 ± 0.01 | 2.02 ± 0.045
CUCCAU | 2.021 ± 0.011 | 2.03 ± 0.0026
AUGUCA | 1.979 ± 0.0033 | 2.01 ± 0.016
CUUGCC | 2.03 ± 0.0023 | 2 ± 0.064
AAGCCC | 2.0608 ± 0.0014 | 2.04 ± 0.039
AGUUAG | 1.908 ± 0.017 | 2 ± 0.038
ACAUGU | 2.022 ± 0.0056 | 2.02 ± 0.023
UAGCUC | 2.08 ± 0.017 | 2.0396 ± 0.002
CCCCUU | 2.06 ± 0.023 | 2.05 ± 0.034
UACUAC | 2.022 ± 0.0093 | 2.011 ± 0.0087
ACAGUU | 2 ± 0.012 | 2.01 ± 0.046
GCUUUC | 2.0144 ± 0.0002 | 2.01 ± 0.029
UCAUGU | 1.942 ± 0.0042 | 2.01 ± 0.039
CCCCCA | 2.023 ± 0.004 | 1.99 ± 0.047
GACCGU | 2.03 ± 0.029 | 2.01 ± 0.023
GAGAGC | 1.945 ± 0.01 | 2.03 ± 0.042
CCGCCU | 2.087 ± 0.0066 | 2.08 ± 0.03
UGAUCU | 1.995 ± 0.012 | 2.04 ± 0.091
